The values that follow come from the supplement of paper PMC10567573.

B1: DVL3 (parent)
chain: SDVVDWLYHNVEGFTDRREARKYA
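Also: lentivirally expressed fusions sorted by FACS into six bins by GFP to DsRed ratio, PSI derived from sequencing read proportions per bin multiplied by bin number.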

In the series the parent is B1. Nature of the series: protein stability index of a GFP-peptide fusion (GPS, HEK-293T) (PSI 1-6); higher = more stable. To be noted: c terminus: a fixed tail appended.
On to SDVVDWLYHNVEGFTDRREAPKYA [R21P], for which the protein stability index was determined as 2.66.

For the variant SDVVDWLYHNVEGFTDRREAEKYA [R21E], the protein stability index is 3.57.

SDVVDWLYHNVEGFTDRREASKYA [R21S]: the protein stability index was 2.84.

As to SDVVDWLYHNVEGFTDRREAKKYA [R21K], the protein stability index was found to be 3.24.

Regarding SDVVDWLYHNVEGFTDCREARKYA [R17C], the protein stability index was found to be 3.43.

Take SDVVDWLYHNVEGFTDMREARKYA [R17M]: the protein stability index worked out at 2.63.

For the variant SDVVDWLYHNVEGFTDQREARKYA [R17Q], the protein stability index worked out at 3.67.

Take SDVVDWLYHNVEGFTDKREARKYA [R17K]: the protein stability index was 3.7.

For the variant SDVVDWLYHNVEGFTDDREARKYA [R17D], the protein stability index was found to be 3.56.

As for SDVVDWLYHNVEGFTDTREARKYA [R17T], the protein stability index amounted to 3.09.

Turning to SDVVDWLYHNVEGFTDSREARKYA [R17S], the protein stability index was found to be 3.9.

Turning to SDVVDWLYHNVEGFTDPREARKYA [R17P], the protein stability index worked out at 3.33.

In the case of SDVVDWLYHNVEGFTDLREARKYA [R17L], the protein stability index was 2.69.

Consider SDVVDWLYHNVEGFTDVREARKYA [R17V], for which the protein stability index is 2.37.

On to SDVVDWLYHNVEGFTDIREARKYA [R17I], for which the protein stability index amounted to 1.82.

Take SDVVDWLYHNVEGFTDFREARKYA [R17F]: the protein stability index worked out at 2.16.

In the case of SDVVDWLYHNVEGFTDHREARKYA [R17H], the protein stability index is 4.21.

As for SDVVDWLYHNVEGFTDYREARKYA [R17Y], the protein stability index stood at 2.45.

Consider SDVVDWLYHNVEGFTDNREARKYA [R17N], for which the protein stability index came out at 2.65.

Turning to SDVVDWLYHNVEGFTDEREARKYA [R17E], the protein stability index came to 3.82.

With SDVVDWLYHNVEGFTDWREARKYA [R17W], the protein stability index is 2.

Turning to SDVVDWLYHNVEGFTDAREARKYA [R17A], the protein stability index came to 2.81.

As to SDVVDWLYHNVEGFTDRREARKYD [A24D], the protein stability index was determined as 4.05.

With SDVVDWLYHNVEGFTDRREARKYC [A24C], the protein stability index turned out to be 3.45.

Turning to SDVVDWLYHNVEGFTDRREARKYE [A24E], the protein stability index came out at 2.62.

As to SDVVDWLYHNVEGNTDRREARKYA [F14N], the protein stability index was 3.61.

Consider SDVVDWLYHNVEGPTDRREARKYA [F14P], for which the protein stability index worked out at 3.61.

SDVVDWLYHNVEGQTDRREARKYA [F14Q]: the protein stability index turned out to be 3.86.

As for SDVVDWLYHNVEGCTDRREARKYA [F14C], the protein stability index came out at 3.04.

Take SDVVDWLYHNVEGHTDRREARKYA [F14H]: the protein stability index came out at 3.27.

Regarding SDVVDWLYHNVEGGTDRREARKYA [F14G], the protein stability index amounted to 3.96.

With SDVVDWLYHNVEGDTDRREARKYA [F14D], the protein stability index is 3.95.

Consider SDVVDWLYHNVEGKTDRREARKYA [F14K], for which the protein stability index came out at 4.76.

As to SDVVDWLYHNVEGITDRREARKYA [F14I], the protein stability index is 3.97.

On to SDVVDWLYHNVEGSTDRREARKYA [F14S], for which the protein stability index is 4.19.

Consider SDVVDWLYHNVEGRTDRREARKYA [F14R], for which the protein stability index stood at 2.56.

As to SDVVDWLYHNVEGWTDRREARKYA [F14W], the protein stability index is 3.18.

On to SDVVDWLYHNVEGETDRREARKYA [F14E], for which the protein stability index is 4.77.

Consider SDVVDWLYHNVEGTTDRREARKYA [F14T], for which the protein stability index worked out at 3.87.

Regarding SDVVDWLYHNVEGLTDRREARKYA [F14L], the protein stability index worked out at 3.11.

Regarding SDVVDWLYHNVEGFTDRRETRKYA [A20T], the protein stability index was found to be 3.16.

With SDVVDWLYHNVEGFTDRREWRKYA [A20W], the protein stability index was found to be 2.18.

Consider SDVVDWLYHNVEGFTDRREPRKYA [A20P], for which the protein stability index came out at 4.29.

On to SDVVDWLYHNVEGFTDRREIRKYA [A20I], for which the protein stability index was 1.98.

Consider SDVVDWLYHNVEGFTDRRENRKYA [A20N], for which the protein stability index stood at 2.96.

SDVVDWLYHNVEGFTDRREFRKYA [A20F]: the protein stability index came to 2.28.

As for SDVVDWLYHNVEGFTDRREVRKYA [A20V], the protein stability index is 1.83.

For the variant SDVVDWLYHNVEGFTDRREKRKYA [A20K], the protein stability index stood at 2.56.

In the case of SDVVDWLYHNVEGFTDRRERRKYA [A20R], the protein stability index worked out at 3.15.

Consider SDVVDWLYHNVEGFTDRREERKYA [A20E], for which the protein stability index was 3.5.

On to SDVVDWLYHNVEGFTDRREDRKYA [A20D], for which the protein stability index stood at 3.1.

Turning to SDVVDWLYHNVEGFTDRRELRKYA [A20L], the protein stability index was 2.34.

For the variant SDVVDWLYHNVEGFTDRREHRKYA [A20H], the protein stability index stood at 3.02.

With SDVVDWLYHNVEGFTDRREQRKYA [A20Q], the protein stability index worked out at 2.69.

With SDVVDWLYHNVEGFTDRREGRKYA [A20G], the protein stability index was found to be 4.09.

SDVVDWLYHNVEGFTDRRECRKYA [A20C]: the protein stability index worked out at 2.73.

With SDVVDWLYHNVEGFTDRREYRKYA [A20Y], the protein stability index worked out at 2.34.

Turning to SDVVDWLYHNVEGFTDRRESRKYA [A20S], the protein stability index is 3.43.

Consider SDVVDWLYHNVEGFTDRREMRKYA [A20M], for which the protein stability index turned out to be 3.28.

SDVVDWLYHNVEGFTKRREARKYA [D16K]: the protein stability index came out at 2.29.

For SDVVDWLYHNVEGFTCRREARKYA [D16C], the protein stability index stood at 1.92.

With SDVVDWLYHNVEGFTWRREARKYA [D16W], the protein stability index was found to be 2.12.

On to SDVVDWLYHNVEGFTARREARKYA [D16A], for which the protein stability index stood at 2.45.

Regarding SDVVDWLYHNVEGFTVRREARKYA [D16V], the protein stability index worked out at 2.24.

With SDVVDWLYHNVEGFTIRREARKYA [D16I], the protein stability index was found to be 3.24.

On to SDVVDWLYHNVEGFTPRREARKYA [D16P], for which the protein stability index is 3.74.

SDVVDWLYHNVEGFTLRREARKYA [D16L]: the protein stability index came to 2.07.

SDVVDWLYHNVEGFTTRREARKYA [D16T]: the protein stability index was determined as 2.66.

In the case of SDVVDWLYHNVEGFTMRREARKYA [D16M], the protein stability index came to 2.29.

On to SDVVDWLYHNVEGFTERREARKYA [D16E], for which the protein stability index was determined as 3.

With SDVVDWLYHNVEGFTRRREARKYA [D16R], the protein stability index came to 2.21.

In the case of SDVVDWLYHNVEGFTFRREARKYA [D16F], the protein stability index came out at 2.94.

Turning to SDVVDWLYHNVEGFTQRREARKYA [D16Q], the protein stability index was 3.19.

Regarding SDVVDWLYHNVEGFTYRREARKYA [D16Y], the protein stability index amounted to 2.06.

For SDVVDWLYHNVEGFTHRREARKYA [D16H], the protein stability index came to 2.37.

On to SDVVDWLYHNVEGFTDRREAREYA [K22E], for which the protein stability index came out at 3.24.

In the case of SDVVDWLYHNVEGFTDRREARRYA [K22R], the protein stability index was 2.29.

As for SDVVDWLYHNVEGFTDRREARVYA [K22V], the protein stability index came out at 2.36.

In the case of SDVVDWLYHNVEGFTDRREARGYA [K22G], the protein stability index was 2.68.

On to SDVVDWLYHNVEGFTDRREARNYA [K22N], for which the protein stability index came to 3.45.

On to SDVVDWLYHNVEGFTDRREARQYA [K22Q], for which the protein stability index is 2.81.

Take SDVVDWLYHNVEGFTDRREARYYA [K22Y]: the protein stability index was 1.96.

Turning to SDVVDWLYHNVEGFTDRREARMYA [K22M], the protein stability index was determined as 2.06.

For SDVVDWLYHNVEGFTDRREARTYA [K22T], the protein stability index worked out at 2.95.

SDVVDWLYHNVEGFTDRREARDYA [K22D]: the protein stability index was determined as 2.89.

For SDVVDWLYHNVEGFTDRREARWYA [K22W], the protein stability index is 2.06.

Consider SDVVDWLYHNVEGFTDRREARHYA [K22H], for which the protein stability index came to 3.

With SDVVDWLYHNVEGFTDRREARAYA [K22A], the protein stability index is 2.73.

For the variant SDVVDWLYHNVEGFTDRREARPYA [K22P], the protein stability index was found to be 3.31.

For SDVVDWLYHNVEGFTDRREARFYA [K22F], the protein stability index came to 1.83.

Consider SDVVDWLYHNVEGFTDRREARLYA [K22L], for which the protein stability index was 2.19.

Turning to SDVVDWLYHNVEGFTDRREARSYA [K22S], the protein stability index worked out at 3.31.

For the variant SDVVDWLYHNVEGFTDRREARCYA [K22C], the protein stability index amounted to 2.13.

Regarding SDVVDWLYHNVEGFTDRREARIYA [K22I], the protein stability index turned out to be 2.85.
